Laboratory results reported in the RNAGym collection of RNA variant scans (doi:10.1021/acssynbio.7b00057).

B1: Pistol ribozyme (parent)
chain: GGGUCGUUGUUCCAUAAUCGCGUGGAUAUGGCACGCAAGUUUCUACCGGGCACCGUAAAUGUCCGACUGGAGCCGUUCGGGCGGCUAUAAACAGACCUCAGGCCCGAAGCGUGGCGGCACCUGCCGCCGGUGGUAAAAAAGAUCGGAAGAGCACACGUCU

Variants of: B1
Test: aptazyme ON/OFF ratio, guanine; higher = stronger switching; co-transcriptional cleavage with and without guanine

| Variant | aptazyme ON/OFF ratio |
| --- | --- |
| U8A C12G C13G | 1.18 |
| U8A C12G C13A | 1.48 |
| U8A G9A U10G U11G C12A C13G | 1.27 |
| U8A G9A U10G U11G C12A C13A | 1.12 |
| U8A G9A U10G U11G C12A C13U | 1.3 |
| U7G U11C C12U C13G | 1.1 |
| U7G U11C C12U C13A | 1.13 |
| U7G U11C C12U C13U | 1.19 |
| U7G U10G U11A C12A C13G | 1.09 |
| U7G U10G U11A C12A C13U | 1.08 |
| U7G U10G U11A C12A C13A | 1.14 |
| U8A G9A U11A C12A | 1.08 |
| U8A G9A U10C U11G C13G | 1.18 |
| U8A G9A U10C U11G C13A | 1.16 |
| U8A G9A U10C U11G C13U | 1.17 |
| U7G U11A C12A C13U | 1.22 |
| U7G U11A C12A C13A | 1.17 |
| U7G U11A C12A C13G | 1.14 |
| U8A G9A U10C C12A | 1.15 |
| U8A G9A U10C C12G | 1.18 |
| U8A G9A U10C C12U | 1.24 |

| Variant | aptazyme ON/OFF ratio |
| --- | --- |
| U8A G9A U10G U11G C12G | 1.26 |
| U8A G9A U10G U11G C12A | 1.09 |
| U8A G9A U10G U11G C12U | 1.2 |
| U8A G9A C12A C13U | 1.19 |
| U8A G9A C12A C13G | 1.1 |
| U8A G9A C12A C13A | 1.3 |
| U8A G9A U10G C12G C13G | 1.1 |
| U8A G9A U10G C12G C13U | 1.26 |
| U8A G9A U10G C12G C13A | 1.14 |
| U7G U10G C12G C13A | 1.21 |
| U7G U10G C12G C13U | 1.12 |
| U7G U10G C12G C13G | 1.07 |
| U8A G9A U10A U11G C12A C13A | 1.03 |
| U8A G9A U10A U11G C12A C13G | 1.18 |
| U8A G9A U10A U11G C12A C13U | 1.11 |
| U8A G9A U10G U11C C12A | 1.15 |
| U8A G9A U10G U11C C12G | 1.2 |
| U8A G9A U10G U11C C12U | 1.07 |
| U8A G9A U10C C12A C13A | 1.19 |
| U8A G9A U10C C12A C13U | 1.18 |
| U8A G9A U10C C12A C13G | 1.13 |

| Variant | aptazyme ON/OFF ratio |
| --- | --- |
| U7G U10G U11A C12U C13U | 1.08 |
| U7G U10G U11A C12U C13G | 1.16 |
| U7G U10G U11A C12U C13A | 1.1 |
| U8A G9A U10C U11G C12A | 1.03 |
| U8A G9A U10C U11G C12U | 1.26 |
| U8A G9A U10C U11G C12G | 1.38 |
| U7G U10G U11G C12U C13G | 1.17 |
| U7G U10G U11G C12U C13U | 1.36 |
| U7G U10G U11G C12U C13A | 1.13 |
| U8A G9A U10C U11C C12A C13G | 1.1 |
| U8A G9A U10C U11C C12A C13U | 1.02 |
| U8A G9A U10C U11C C12A C13A | 1.07 |
| U7G U11C C12G C13U | 1.14 |
| U7G U11C C12G C13A | 1.2 |
| U7G U11C C12G C13G | 1.09 |
| U8A G9A U10G C13G | 1.21 |
| U8A G9A U10G C13A | 1.29 |
| U8A G9A U10G C13U | 1.29 |
| U7G U10G U11C C12U C13G | 1.3 |
| U7G U10G U11C C12U C13U | 1.25 |
| U7G U10G U11C C12U C13A | 1.08 |

| Variant | aptazyme ON/OFF ratio |
| --- | --- |
| U8A G9A U10C U11G | 1.33 |
| U8A G9A U10C U11A | 1.33 |
| U8A G9A U10C U11C | 1.04 |
| U7G U10G U11A C12G C13U | 1.1 |
| U7G U10G U11A C12G C13A | 1.11 |
| U7G U10G U11A C12G C13G | 1.13 |
| U8A G9A U10A U11A C12U C13G | 1.1 |
| U8A G9A U10A U11A C12U C13U | 1.21 |
| U8A G9A U10A U11A C12U C13A | 1.37 |
| U7G U10G U11A C13U | 1.11 |
| U7G U10G U11A C13A | 1.11 |
| U7G U10G U11A C13G | 1.07 |
| U8A C12G | 1.46 |
| U8A C12U | 1.62 |
| U8A C12A | 1.3 |
| U7G U11G C12A C13G | 1.11 |
| U7G U11G C12A C13A | 1.13 |
| U7G U11G C12A C13U | 1.14 |
| U7G U11A C12G C13A | 1.08 |
| U7G U11A C12G C13U | 1.12 |
| U7G U11A C12G C13G | 1.11 |
